Test system: Bacillus subtilis
Experiment: cleaved RNA product abundance (RNA/gDNA barcode ratio) relative to median wild-type variant (ratio to wild type); higher = more accumulation of the downstream cleavage product
Settings: cleavage site: cggR-gapA (positions -7 to +36 mutated)
Method in brief: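 Sequencing of barcodes from gel-selected, reverse-transcribed cleaved RNA and from genomic DNA, with UMI collapsing, yielded a per-construct RNA:gDNA ratio. Scaled to the median construct with the unmutated site, this ratio is the cleaved product abundance. The barcoded reporters (truncated aprE or tetM mRNAs with mutagenized RNase Y cleavage-site windows) were integrated into the B. subtilis chromosome, and cultures grew in LB at 37°C from OD600 0.0003 to 0.3.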

[1] = experiment (reporter, strain, medium): exp 4a: truncated aprE reporter, strain BJT201 with 2% xylose (RNase J1 expressed)
[2] = experiment (reporter, strain, medium): exp 2b: truncated aprE reporter, strain BJT200

Sequence: ACAGACGAAGGAGCCGCAAAGAAGTTATTATCGGATGAATAATCCCTCAATATAAATATCTCTCACTTATTTAAA
- cleaved RNA product abundance [1]: 0.178

Sequence: ACAGACGAAGGAGCCGCAAAGAAGTTATTATGAGATGAATAATCCCTCAATATAAATATCTCTCACTTATTTAAA
- cleaved RNA product abundance [2]: 0.0958
- cleaved RNA product abundance [1]: 0.147

Sequence: ACAGACGAAGGAGCCGCAAAGAAGTTATTATGGAATGAATAATCCCTCAATATAAATATCTCTCACTTATTTAAA
- cleaved RNA product abundance [1]: 0.105

Sequence: ACAGACGAAGGAGCCGCAAAGAAGTTATTATGGCATGAATAATCCCTCAATATAAATATCTCTCACTTATTTAAA
- cleaved RNA product abundance [2]: 0.0973
- cleaved RNA product abundance [1]: 0.184

Sequence: ACAGACGAAGGAGCCGCAAAGAAGTTATTATGGGAAGAATAATCCCTCAATATAAATATCTCTCACTTATTTAAA
- cleaved RNA product abundance [2]: 0.159
- cleaved RNA product abundance [1]: 0.246

Sequence: ACAGACGAAGGAGCCGCAAAGAAGTTATTATGGGACGAATAATCCCTCAATATAAATATCTCTCACTTATTTAAA
- cleaved RNA product abundance [1]: 0.174

Sequence: ACAGACGAAGGAGCCGCAAAGAAGTTATTATGGGATAAATAATCCCTCAATATAAATATCTCTCACTTATTTAAA
- cleaved RNA product abundance [2]: 0.31
- cleaved RNA product abundance [1]: 0.362

Sequence: ACAGACGAAGGAGCCGCAAAGAAGTTATTATGGGATCAATAATCCCTCAATATAAATATCTCTCACTTATTTAAA
- cleaved RNA product abundance [2]: 0.23

Sequence: ACAGACGAAGGAGCCGCAAAGAAGTTATTATGGGATGAAAAATCCCTCAATATAAATATCTCTCACTTATTTAAA
- cleaved RNA product abundance [1]: 0.334

Sequence: ACAGACGAAGGAGCCGCAAAGAAGTTATTATGGGATGAATAAACCCTCAATATAAATATCTCTCACTTATTTAAA
- cleaved RNA product abundance [1]: 0.21

Sequence: ACAGACGAAGGAGCCGCAAAGAAGTTATTATGGGATGAATAACCCCTCAATATAAATATCTCTCACTTATTTAAA
- cleaved RNA product abundance [1]: 0.194

Sequence: ACAGACGAAGGAGCCGCAAAGAAGTTATTATGGGATGAATAATCCATCAATATAAATATCTCTCACTTATTTAAA
- cleaved RNA product abundance [1]: 0.236

Sequence: ACAGACGAAGGAGCCGCAAAGAAGTTATTATGGGATGAATAATCCCTAAATATAAATATCTCTCACTTATTTAAA
- cleaved RNA product abundance [1]: 0.514

Sequence: ACAGACGAAGGAGCCGCAAAGAAGTTATTATGGGATGAATAATCCCTCAAAATAAATATCTCTCACTTATTTAAA
- cleaved RNA product abundance [1]: 0.277

Sequence: ACAGACGAAGGAGCCGCAAAGAAGTTATTATGGGATGAATAATCCCTCAACATAAATATCTCTCACTTATTTAAA
- cleaved RNA product abundance [1]: 0.361

Sequence: ACAGACGAAGGAGCCGCAAAGAAGTTATTATGGGATGAATAATCCCTCAATATAAAAATCTCTCACTTATTTAAA
- cleaved RNA product abundance [2]: 0.279
- cleaved RNA product abundance [1]: 0.391

Sequence: ACAGACGAAGGAGCCGCAAAGAAGTTATTATGGGATGAATAATCCCTCAATATAAATACCTCTCACTTATTTAAA
- cleaved RNA product abundance [2]: 0.348
- cleaved RNA product abundance [1]: 0.44

Sequence: ACAGACGAAGGAGCCGCAAAGAAGTTATTATGGGATGAATAATCCCTCAATATAAATATCTCTCACTTATTTAAA
- cleaved RNA product abundance [2]: 0.302
- cleaved RNA product abundance [1]: 0.407

Sequence: ACAGACGAAGGAGCCGCAAAGAAGTTATTATGGGATGAATAATCCCTCAATATAATTATCTCTCACTTATTTAAA
- cleaved RNA product abundance [1]: 0.294

Sequence: ACAGACGAAGGAGCCGCAAAGAAGTTATTATGGGATGAATAATCCCTCAATATACATATCTCTCACTTATTTAAA
- cleaved RNA product abundance [1]: 0.538

Sequence: ACAGACGAAGGAGCCGCAAAGAAGTTATTATGGGATGAATAATCCCTCAATATAGATATCTCTCACTTATTTAAA
- cleaved RNA product abundance [1]: 0.323

Sequence: ACAGACGAAGGAGCCGCAAAGAAGTTATTATGGGATGAATAATCCCTCAATATATATATCTCTCACTTATTTAAA
- cleaved RNA product abundance [1]: 0.503

Sequence: ACAGACGAAGGAGCCGCAAAGAAGTTATTATGGGATGAATAATCCCTCAATATCAATATCTCTCACTTATTTAAA
- cleaved RNA product abundance [1]: 0.0948

Sequence: ACAGACGAAGGAGCCGCAAAGAAGTTATTATGGGATGAATAATCCCTCAATTTAAATATCTCTCACTTATTTAAA
- cleaved RNA product abundance [1]: 0.169

Sequence: ACAGACGAAGGAGCCGCAAAGAAGTTATTATGGGATGAATAATCCCTCATTATAAATATCTCTCACTTATTTAAA
- cleaved RNA product abundance [1]: 0.528

Sequence: ACAGACGAAGGAGCCGCAAAGAAGTTATTATGGGATGAATAATCCCTCCATATAAATATCTCTCACTTATTTAAA
- cleaved RNA product abundance [2]: 0.361

Sequence: ACAGACGAAGGAGCCGCAAAGAAGTTATTATGGGATGAATAATCCCTCTATATAAATATCTCTCACTTATTTAAA
- cleaved RNA product abundance [1]: 0.223

Sequence: ACAGACGAAGGAGCCGCAAAGAAGTTATTATGGGATGAATAATCCCTGAATATAAATATCTCTCACTTATTTAAA
- cleaved RNA product abundance [1]: 0.663

Sequence: ACAGACGAAGGAGCCGCAAAGAAGTTATTATGGGATGAATAATCCGTCAATATAAATATCTCTCACTTATTTAAA
- cleaved RNA product abundance [1]: 0.279

Sequence: ACAGACGAAGGAGCCGCAAAGAAGTTATTATGGGATGAATAATCCTTCAATATAAATATCTCTCACTTATTTAAA
- cleaved RNA product abundance [2]: 0.315
- cleaved RNA product abundance [1]: 0.382

Sequence: ACAGACGAAGGAGCCGCAAAGAAGTTATTATGGGATGAATAATCTCTCAATATAAATATCTCTCACTTATTTAAA
- cleaved RNA product abundance [2]: 0.224
- cleaved RNA product abundance [1]: 0.285

Sequence: ACAGACGAAGGAGCCGCAAAGAAGTTATTATGGGATGAATAATTCCTCAATATAAATATCTCTCACTTATTTAAA
- cleaved RNA product abundance [2]: 0.149
- cleaved RNA product abundance [1]: 0.246

Sequence: ACAGACGAAGGAGCCGCAAAGAAGTTATTATGGGATGAATACTCCCTCAATATAAATATCTCTCACTTATTTAAA
- cleaved RNA product abundance [1]: 0.212

Sequence: ACAGACGAAGGAGCCGCAAAGAAGTTATTATGGGATGATTAATCCCTCAATATAAATATCTCTCACTTATTTAAA
- cleaved RNA product abundance [1]: 0.414

Sequence: ACAGACGAAGGAGCCGCAAAGAAGTTATTATGGGATGTATAATCCCTCAATATAAATATCTCTCACTTATTTAAA
- cleaved RNA product abundance [2]: 0.31

Sequence: ACAGACGAAGGAGCCGCAAAGAAGTTATTATGGGATTAATAATCCCTCAATATAAATATCTCTCACTTATTTAAA
- cleaved RNA product abundance [2]: 0.352
- cleaved RNA product abundance [1]: 0.307

Sequence: ACAGACGAAGGAGCCGCAAAGAAGTTATTATGGGGTGAATAATCCCTCAATATAAATATCTCTCACTTATTTAAA
- cleaved RNA product abundance [1]: 0.285

Sequence: ACAGACGAAGGAGCCGCAAAGAAGTTATTATGGTATGAATAATCCCTCAATATAAATATCTCTCACTTATTTAAA
- cleaved RNA product abundance [2]: 0.0925
- cleaved RNA product abundance [1]: 0.14

Sequence: ACAGACGAAGGAGCCGCAAAGAAGTTATTATGTGATGAATAATCCCTCAATATAAATATCTCTCACTTATTTAAA
- cleaved RNA product abundance [1]: 0.131

Sequence: ACAGACGAAGGAGCCGCAAAGAAGTTATTATTGGATGAATAATCCCTCAATATAAATATCTCTCACTTATTTAAA
- cleaved RNA product abundance [1]: 0.149

Sequence: ACAGACGAAGGAGCCGCAAAGAAGTTATTCAAGGATGAATAATCCCTCAATATAAATATCTCTCACTTATTTAAA
- cleaved RNA product abundance [2]: 0.134
- cleaved RNA product abundance [1]: 0.242

Sequence: ACAGACGAAGGAGCCGCAAAGAAGTTATTCAGAGATGAATAATCCCTCAATATAAATATCTCTCACTTATTTAAA
- cleaved RNA product abundance [2]: 0.167
- cleaved RNA product abundance [1]: 0.159

Sequence: ACAGACGAAGGAGCCGCAAAGAAGTTATTCAGCGATGAATAATCCCTCAATATAAATATCTCTCACTTATTTAAA
- cleaved RNA product abundance [1]: 0.0886

Sequence: ACAGACGAAGGAGCCGCAAAGAAGTTATTCAGGAATGAATAATCCCTCAATATAAATATCTCTCACTTATTTAAA
- cleaved RNA product abundance [2]: 0.132
- cleaved RNA product abundance [1]: 0.129

Sequence: ACAGACGAAGGAGCCGCAAAGAAGTTATTCAGGCATGAATAATCCCTCAATATAAATATCTCTCACTTATTTAAA
- cleaved RNA product abundance [2]: 0.0983

Sequence: ACAGACGAAGGAGCCGCAAAGAAGTTATTCAGGGAAGAATAATCCCTCAATATAAATATCTCTCACTTATTTAAA
- cleaved RNA product abundance [1]: 0.697

Sequence: ACAGACGAAGGAGCCGCAAAGAAGTTATTCAGGGATAAATAATCCCTCAATATAAATATCTCTCACTTATTTAAA
- cleaved RNA product abundance [1]: 1.1

Sequence: ACAGACGAAGGAGCCGCAAAGAAGTTATTCAGGGATGAACAATCCCTCAATATAAATATCTCTCACTTATTTAAA
- cleaved RNA product abundance [1]: 0.603

Sequence: ACAGACGAAGGAGCCGCAAAGAAGTTATTCAGGGATGAATAATACCTCAATATAAATATCTCTCACTTATTTAAA
- cleaved RNA product abundance [1]: 0.134

Sequence: ACAGACGAAGGAGCCGCAAAGAAGTTATTCAGGGATGAATAATCCATCAATATAAATATCTCTCACTTATTTAAA
- cleaved RNA product abundance [1]: 0.319

Sequence: ACAGACGAAGGAGCCGCAAAGAAGTTATTCAGGGATGAATAATCCCCCAAAATAAATATCTCTCACTTATTTAAA
- cleaved RNA product abundance [1]: 0.165

Sequence: ACAGACGAAGGAGCCGCAAAGAAGTTATTCAGGGATGAATAATCCCTAAATATAAATATCTCTCACTTATTTAAA
- cleaved RNA product abundance [2]: 0.695
- cleaved RNA product abundance [1]: 0.713

Sequence: ACAGACGAAGGAGCCGCAAAGAAGTTATTCAGGGATGAATAATCCCTCAATATAAAAATCTCTCACTTATTTAAA
- cleaved RNA product abundance [1]: 0.461

Sequence: ACAGACGAAGGAGCCGCAAAGAAGTTATTCAGGGATGAATAATCCCTCAATATAAATAACTCTCACTTATTTAAA
- cleaved RNA product abundance [2]: 0.615

Sequence: ACAGACGAAGGAGCCGCAAAGAAGTTATTCAGGGATGAATAATCCCTCAATATAAATATCTCTCACTTATTTAAA
- cleaved RNA product abundance [2]: 0.766
- cleaved RNA product abundance [1]: 0.882
- cleaved RNA product abundance (experiment (reporter, strain, medium): exp 6: tetM reporter, strain 168): 0.609

Sequence: ACAGACGAAGGAGCCGCAAAGAAGTTATTCAGGGATGAATAATCCGTCAATATAAATATCTCTCACTTATTTAAA
- cleaved RNA product abundance [2]: 0.117

Sequence: ACAGACGAAGGAGCCGCAAAGAAGTTATTCAGGGATGAATAATTCCTCAATATAAATATCTCTCACTTATTTAAA
- cleaved RNA product abundance [1]: 0.513

Sequence: ACAGACGAAGGAGCCGCAAAGAAGTTATTCAGGGATGAATTATCCCTCAATATAAATATCTCTCACTTATTTAAA
- cleaved RNA product abundance [2]: 0.56
- cleaved RNA product abundance [1]: 0.629

Sequence: ACAGACGAAGGAGCCGCAAAGAAGTTATTCAGGGATGATTAATCCCTCAATATAAATATCTCTCACTTATTTAAA
- cleaved RNA product abundance [2]: 0.532

Sequence: ACAGACGAAGGAGCCGCAAAGAAGTTATTCAGGGATTAATAATCCCTCAATATAAATATCTCTCACTTATTTAAA
- cleaved RNA product abundance [2]: 0.815
- cleaved RNA product abundance [1]: 1
